Test results as given in patent US7507716B2, “Method for treating pain with prolactin antagonists” (Board of Regents, The University of Texas System, priority 2005, dated 2009).

Legend:
PRL-R = experiment: Western blot of PRL-R isoforms in TG of OVX rats; format: in vivo, rat; conditions: TG of OVX rats, 2, 20 or 80 μg/kg s.c. daily for 10 days
From the text: There are two isoforms of the rat PRL receptor (PRL-R) that differ in the length of their cytoplasmic tail and are therefore termed the long and short isoforms. […] Moreover, the differential expression of these receptors is regulated by estrogen in certain tissues (Sakaguchi et al., 1994; Pi et al., 2003). To determine whether estrogen regulates the expression of the PRL-R in the female TG, protein extracts prepared from TG of OVX rats and subjected to Western blot analysis using an anti-PRL-R antibody that recognizes both the long and the short PRL-R isoforms. FIG. 3A depicts a representative immunoblot of this experiment. The antibody recognized two bands migrating at approximately 100 KDa and 40 KDa corresponding to the long and short PRL-R isoforms respectively. Blots were stripped and probed with an antibody against beta-actin to normalize for loading differences. […] The data are presented as mean±SEM (n=4/group, *=p<0.05 and **=p<0.01; one-way ANOVA with Bonferroni's post hoc test).
At the end of the 10th day, animals were used for behavioral experiments or sacrificed by decapitation and the TG of each individual animal were harvested. Harvested tissue was used for RNA isolation, total protein isolation, or for preparing primary cultures of TG neurons. […]

[1] = system: acutely dissociated TG neurons; experiment: Calcium imaging, PRL effect on capsaicin-evoked Ca2+ influx; format: cell-based, rat
From the text: The binding of PRL to the PRL-R activates a variety of intracellular signaling pathways in non-neuronal cells (Bole-Feysot et al. 1998), some of which are known to be involved in the sensitization of TRPV1 in nociceptors (Cesare and McNaughton, 1996). To evaluate whether PRL sensitizes capsaicin activation of TRPV1, changes in calcium (Ca^2+) influx were quantified in acutely dissociated TG neurons. FIG. 4A depicts the results of Ca^2+ imaging experiments performed in acutely dissociated TG neurons. Data are presented as mean % of vehicle±SEM (n=30/group, ***=p<0.001; two-way ANOVA). FIG. 4B depicts representative traces of Ca^2+ imaging experiments performed in neurons from proestrous rats. Neurons were treated with 40 nM PRL or vehicle for 10 min followed by a 40 sec capsaicin (30 nM) application. […] Data are presented as mean F340/F380±SEM (n=8/group; error bars are SEM). […] PRL appears to increase the magnitude of capsaicin-evoked Ca^2+ influx in TG neurons by about 71% compared to that observed in TG neurons not exposed to PRL, whereas PRL had no effect on capsaicin-evoked calcium influx in neurons from OVX control rats (FIG. 4A). […]
Calcium Imaging: TG cells cultured on coverslips were loaded with the cell-permeable calcium sensitive dye FURA 2-AM (1 ug/ml) (Molecular Probes, Eugene, Oreg.) for 30 min at 37° C. in Standard External Solution (SES) of the following composition in mM: 140 NaCl, 5 KCl, 2 CaCl2, 1 MgCl2, 10 glucose and 10 HEPES, pH 7.4. […] Fluorescence images were collected in 5 sec intervals throughout the experiment, analyzed, and the F340/F380 ratio calculated by the Methafluor Software (MethaMorph, Web Universal Imaging Corporation, Downingtown, Pa.). […] The magnitude of calcium influx was determined by subtracting the averaged baseline 30 sec prior to the capsaicin stimulus from the peak achieved by the capsaicin stimulation for each cell (ratiometric method, ΔF340/F380).

Row | Molecule | expression of the long form of PRL-R (PRL-R) | expression of the short form of the PRL-R (PRL-R) | increase in magnitude of capsaicin-evoked Ca2+ influx ([1]; PRL 40 nM 10 min, capsaicin 30 nM 40 sec, neurons from intact female rats) | effect on capsaicin-evoked calcium influx ([1]; PRL 40 nM, neurons from OVX control rats) | Ca2+ influx evoked by PRL on its own ([1]; PRL 40 nM, neurons from proestrous rats)
1 | C[C@]12CC[C@@H]3c4ccc(O)cc4CC[C@H]3[C@@H]1CC[C@@H]2O [estradiol, 17-β-estradiol] | increases expression of the long form of PRL-R in the TG of OVX rats in a dose-dependent manner | does not appear to significantly affect expression of the short form of the PRL-R | – | – | –
2 | PRL: Ovine PRL [oPRL-21, BIO] provided by NHPP; prolactin polypeptide hormone (protein, UniProt P01240 31-229, looked up) Prolactin: TPVCPNGPGNCQVSLRDLFDRAVMVSHYIHNLSSEMFNEFDKRYAQGKGFITMALNSCHTSSLPTPEDKEQAQQTHHEVLMSLILGLLRSWNDPLYHLVTEVRGMKGVPDAILSRAIEIEEENKRLLEGMEMIFGQVIPGAKETEPYPVWSGLPSLQTKDEDARHSAFYNLLHCLRRDSSKIDTYLKLLNCRIIYNNNC | – | – | about 71% | had no effect | did not evoke Ca^2+ influx on its own
